Article PMC7591906, “pHLIP ICG for delineation of tumors and blood flow during fluorescence-guided surgery” (Scientific Reports, 2020)
Entries after “also recorded” stand apart in the source; their conditions may differ. Peptide text beside a SMILES is read from it. * marks the point of attachment. X1 = CC1(C)C(/C=C/C=C/C=C/C=C2/N(CCCCCC(=O)NCCN3C(=O)CC(*)C3=O)c3ccc4ccccc4c3C2(C)C)=[N+](CCCCS(=O)(=O)[O-])c2ccc3ccccc3c21

Tests used:
[1] = test system: implanted tumors; test: Fluorescence-guided resection of tumors, dose finding; format: in vivo, mice; settings: tail vein, doses 0.5 to 2.5 mg/kg, resection at 24 and 48 h, Stryker SPY-PHI
Protocol: Targeting of murine and human tumors was shown in 8 different tumor models in athymic female nude mice (strain Hsd Athymic Nude-Foxn1nu) ranging in age from 5 to 6 weeks (obtained from Envigo RMS, Inc). The following tumors were established by subcutaneous injection of 1 x 10^6 cells/0.1 ml/flank in flanks of athymic nude mice: HeLa (humans cervical adenocarcinoma), M4A4 (human epithelial carcinoma), 4T1 (murine breast tumor), A549 (human lung carcinoma), LLC (murine Lewis Lung carcinoma), UM-UC3 (human urinary bladder cancer), and 4 x 10^6 cells/0.1 ml/flank of LNCaP tumor (human prostate cancer). Human MDA-MB-231 (breast adenocarcinoma) tumors were established by injections of 1 x 10^6 cells/0.05 ml in the mammary fat pad. […] Finally, surgery was carried out under fluorescence-guidance to remove tumor and to image the tumor bed using the Stryker SPY-PHI handheld clinical imaging system.

[2] = test system: human peripheral blood lymphocytes; test: In vitro mammalian cell micronucleus test; format: cell-based; settings: up to 0.5 mg/mL
Protocol: The objective of this study performed at CRL was to determine the potential genotoxicity of pHLIP ICG using an in vitro mammalian cell micronucleus test in human peripheral blood lymphocytes.
Human peripheral blood lymphocytes were treated with pHLIP ICG at levels up to the standard limit of 0.5 mg/mL. […] The negative control results were within the laboratory negative historical control range. Lymphocytes were also incubated with standard positive controls, which caused statistically significant increases in the proportion of cells with micronuclei, confirming the sensitivity of the test system and the activity of the S9 mix. All criteria for a valid assay were therefore met.

CC(C)C[C@H](NC(=O)[C@H](Cc1ccc(O)cc1)NC(=O)[C@H](C)NC(=O)[C@H](CCCNC(=N)N)NC(=O)[C@H](Cc1c[nH]c2ccccc12)NC(=O)[C@@H]1CCCN1C(=O)[C@H](CC(N)=O)NC(=O)[C@H](CCC(N)=O)NC(=O)[C@H](CC(=O)O)NC(=O)[C@H](CC(=O)O)NC(=O)[C@H](CSC1CC(=O)N(CCNC(=O)CCCCCN2/C(=C/C=C/C=C/C=C/C3=[N+](CCCCS(=O)(=O)[O-])c4ccc5ccccc5c4C3(C)C)C(C)(C)c3c2ccc2ccccc32)C1=O)NC(=O)[C@H](C)N)C(=O)N[C@@H](CC(=O)O)C(=O)N[C@@H](CC(C)C)C(=O)N[C@@H](CC(C)C)C(=O)N[C@@H](Cc1ccccc1)C(=O)N1CCC[C@H]1C(=O)N[C@H](C(=O)N[C@@H](CC(=O)O)C(=O)N[C@H](C(=O)N[C@@H](CC(C)C)C(=O)N[C@@H](CC(C)C)C(=O)N[C@@H](CC(C)C)C(=O)N[C@@H](CC(=O)O)C(=O)N[C@@H](CC(C)C)C(=O)N[C@@H](CC(C)C)C(=O)N[C@@H](Cc1c[nH]c2ccccc12)C(=O)N[C@@H](C)C(=O)O)[C@@H](C)O)[C@@H](C)O (stereo partly drawn) [pHLIP ICG] (H-AC(X1)DDQNPWRAYLDLLFPTDTLLLDLLWA-OH)
Minimal dose sufficient for successful visualization of tumors [1]: 0.5 mg/kg
Cytotoxicity or precipitation in the assay [2]: no pHLIP ICG related cytotoxicity or precipitation was observed
Induction of micronuclei ([2]; 4 h without/with S9, 24 h without S9): did not show any evidence of genotoxic activity; also recorded: negative for the induction of micronuclei
